These are literature values, as cited in article PMC8405992.

Like-named read-outs stand apart in the source and are kept apart here.

In data set [1] the target is Rad23-UBL UBL (Saccharomyces cerevisiae) (UniProt P32628).
Data set [2] addresses Rad23 UBL (Saccharomyces cerevisiae) (UniProt P32628).
For data set [3], the target named is Dsk2 UBL (Saccharomyces cerevisiae) (UniProt P48510).
Data set [4] addresses Ubp6 UBL (Saccharomyces cerevisiae) (UniProt P43593).
The target in data set [5] is Dsk2 UBL (Saccharomyces cerevisiae) (UniProt P48510). This is another data set of the same source.
Data set [6] deals with Ubp6 UBL (Saccharomyces cerevisiae) (UniProt P43593). The source holds these as a separate data set.
Sequence of Ubp6 UBL (Saccharomyces cerevisiae) (P43593 6-80): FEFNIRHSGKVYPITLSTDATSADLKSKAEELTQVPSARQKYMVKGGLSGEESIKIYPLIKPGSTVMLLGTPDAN

Sequence of Dsk2 UBL (Saccharomyces cerevisiae) (P48510 1-76): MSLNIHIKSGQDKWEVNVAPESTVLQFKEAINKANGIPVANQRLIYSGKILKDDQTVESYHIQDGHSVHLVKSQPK
Sequence of Rpn1 391-642 (P38764 391-642): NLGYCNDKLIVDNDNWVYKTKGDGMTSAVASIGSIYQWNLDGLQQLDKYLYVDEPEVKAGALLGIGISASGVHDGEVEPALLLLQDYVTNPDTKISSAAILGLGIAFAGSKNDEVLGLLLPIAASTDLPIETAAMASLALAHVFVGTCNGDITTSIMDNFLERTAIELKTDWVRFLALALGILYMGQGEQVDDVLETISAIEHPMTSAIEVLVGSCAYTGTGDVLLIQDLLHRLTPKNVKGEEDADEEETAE
Sequence of Rpn1 (P38764 2-993): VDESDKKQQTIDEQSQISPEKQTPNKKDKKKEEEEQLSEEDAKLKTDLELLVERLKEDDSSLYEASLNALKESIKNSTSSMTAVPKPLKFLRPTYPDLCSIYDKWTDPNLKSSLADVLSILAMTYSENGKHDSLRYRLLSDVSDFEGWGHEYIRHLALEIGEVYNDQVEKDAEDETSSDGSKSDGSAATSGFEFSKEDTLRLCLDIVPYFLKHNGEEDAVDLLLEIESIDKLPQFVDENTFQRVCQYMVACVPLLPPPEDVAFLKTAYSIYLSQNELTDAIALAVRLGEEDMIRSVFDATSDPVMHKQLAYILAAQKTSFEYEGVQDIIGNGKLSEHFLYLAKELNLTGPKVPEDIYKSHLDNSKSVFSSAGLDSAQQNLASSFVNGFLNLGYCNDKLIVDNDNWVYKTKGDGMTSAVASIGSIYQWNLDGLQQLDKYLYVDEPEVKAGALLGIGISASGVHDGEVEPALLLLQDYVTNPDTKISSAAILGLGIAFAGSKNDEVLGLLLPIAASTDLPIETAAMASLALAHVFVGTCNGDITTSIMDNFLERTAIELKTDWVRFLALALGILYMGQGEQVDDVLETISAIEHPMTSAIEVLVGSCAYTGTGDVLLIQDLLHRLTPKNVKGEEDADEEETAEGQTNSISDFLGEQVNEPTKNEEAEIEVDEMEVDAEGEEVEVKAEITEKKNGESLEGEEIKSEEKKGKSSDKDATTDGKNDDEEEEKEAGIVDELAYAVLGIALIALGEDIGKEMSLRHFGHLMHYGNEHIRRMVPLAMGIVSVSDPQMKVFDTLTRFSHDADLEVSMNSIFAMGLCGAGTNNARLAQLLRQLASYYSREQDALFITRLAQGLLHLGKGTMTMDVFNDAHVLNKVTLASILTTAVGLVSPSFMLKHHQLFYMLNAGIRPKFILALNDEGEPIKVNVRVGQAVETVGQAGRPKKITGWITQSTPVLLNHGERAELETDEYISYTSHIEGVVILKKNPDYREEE
Sequence of Rad23 UBL (Saccharomyces cerevisiae) (P32628 1-77): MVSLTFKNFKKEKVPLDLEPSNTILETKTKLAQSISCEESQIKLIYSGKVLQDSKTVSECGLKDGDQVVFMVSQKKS
Sequence of Rad23-UBL UBL (Saccharomyces cerevisiae) (P32628 1-77): as above

On to Rpn1 T1 site (from UniProt P38764), for which the Kd in data set [1] and in data set [2] was 64 nM in each case.
Turning to Rpn1 (from UniProt P38764), the Kd – broadly, a measure of binding affinity in units of concentration – was 12 µM in data set [3] and 2000 nM in data set [4].
Turning to Rpn1 391-642 (from UniProt P38764), the Kd in data set [5] was 22 µM; in data set [6], 40 µM.
